Bridge positions count the residues as written; N and C are the ends. Square brackets hold non-standard residues; d marks the D form. Ends that are not written are not given here. bb‑DTPA gadolinium tetramer = not defined here
What was measured:
[1] = biological target: T1, dried human collagen type I (Homo sapiens, UniProt P02452+P08123); test: Dried collagen assay (DCA), human collagen; format: binding; details: 5 μM peptide in PBS pH 7.4, 2 hours at room temperature; percent bound
T1 construct: Acid soluble human collagen extracted from placenta; purchased Sigma C7774; host or cells: human placenta (tissue extract)
T1 sequence (P02452 162-1218 limits assumed): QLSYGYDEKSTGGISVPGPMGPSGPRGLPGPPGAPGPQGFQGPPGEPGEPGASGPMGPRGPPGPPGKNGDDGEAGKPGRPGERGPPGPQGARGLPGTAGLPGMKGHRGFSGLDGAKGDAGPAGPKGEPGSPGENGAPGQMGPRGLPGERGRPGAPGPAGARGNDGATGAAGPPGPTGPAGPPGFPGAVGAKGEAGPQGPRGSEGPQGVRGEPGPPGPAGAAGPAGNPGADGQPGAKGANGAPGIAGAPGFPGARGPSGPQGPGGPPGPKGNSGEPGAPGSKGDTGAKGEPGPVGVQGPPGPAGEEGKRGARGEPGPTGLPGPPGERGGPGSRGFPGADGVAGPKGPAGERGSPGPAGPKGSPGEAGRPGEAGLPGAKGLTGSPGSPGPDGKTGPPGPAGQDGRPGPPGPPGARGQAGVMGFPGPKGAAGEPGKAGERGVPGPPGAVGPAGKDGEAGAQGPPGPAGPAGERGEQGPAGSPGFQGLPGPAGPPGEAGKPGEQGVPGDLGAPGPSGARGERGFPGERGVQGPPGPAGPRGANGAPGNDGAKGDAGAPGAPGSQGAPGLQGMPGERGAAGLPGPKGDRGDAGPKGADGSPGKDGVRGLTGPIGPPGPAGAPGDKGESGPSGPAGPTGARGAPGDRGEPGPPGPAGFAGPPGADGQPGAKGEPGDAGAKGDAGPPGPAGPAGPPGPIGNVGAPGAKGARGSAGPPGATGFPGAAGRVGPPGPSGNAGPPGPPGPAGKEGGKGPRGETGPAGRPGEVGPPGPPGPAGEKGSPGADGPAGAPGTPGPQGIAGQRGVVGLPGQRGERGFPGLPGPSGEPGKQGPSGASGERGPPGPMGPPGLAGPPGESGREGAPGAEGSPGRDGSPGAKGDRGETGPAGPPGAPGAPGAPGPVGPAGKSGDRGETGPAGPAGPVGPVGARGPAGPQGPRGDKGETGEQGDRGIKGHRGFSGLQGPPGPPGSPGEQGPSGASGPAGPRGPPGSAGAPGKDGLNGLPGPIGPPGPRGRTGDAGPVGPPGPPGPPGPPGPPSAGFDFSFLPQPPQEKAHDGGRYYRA
T1 sequence (P08123 80-1119 limits assumed): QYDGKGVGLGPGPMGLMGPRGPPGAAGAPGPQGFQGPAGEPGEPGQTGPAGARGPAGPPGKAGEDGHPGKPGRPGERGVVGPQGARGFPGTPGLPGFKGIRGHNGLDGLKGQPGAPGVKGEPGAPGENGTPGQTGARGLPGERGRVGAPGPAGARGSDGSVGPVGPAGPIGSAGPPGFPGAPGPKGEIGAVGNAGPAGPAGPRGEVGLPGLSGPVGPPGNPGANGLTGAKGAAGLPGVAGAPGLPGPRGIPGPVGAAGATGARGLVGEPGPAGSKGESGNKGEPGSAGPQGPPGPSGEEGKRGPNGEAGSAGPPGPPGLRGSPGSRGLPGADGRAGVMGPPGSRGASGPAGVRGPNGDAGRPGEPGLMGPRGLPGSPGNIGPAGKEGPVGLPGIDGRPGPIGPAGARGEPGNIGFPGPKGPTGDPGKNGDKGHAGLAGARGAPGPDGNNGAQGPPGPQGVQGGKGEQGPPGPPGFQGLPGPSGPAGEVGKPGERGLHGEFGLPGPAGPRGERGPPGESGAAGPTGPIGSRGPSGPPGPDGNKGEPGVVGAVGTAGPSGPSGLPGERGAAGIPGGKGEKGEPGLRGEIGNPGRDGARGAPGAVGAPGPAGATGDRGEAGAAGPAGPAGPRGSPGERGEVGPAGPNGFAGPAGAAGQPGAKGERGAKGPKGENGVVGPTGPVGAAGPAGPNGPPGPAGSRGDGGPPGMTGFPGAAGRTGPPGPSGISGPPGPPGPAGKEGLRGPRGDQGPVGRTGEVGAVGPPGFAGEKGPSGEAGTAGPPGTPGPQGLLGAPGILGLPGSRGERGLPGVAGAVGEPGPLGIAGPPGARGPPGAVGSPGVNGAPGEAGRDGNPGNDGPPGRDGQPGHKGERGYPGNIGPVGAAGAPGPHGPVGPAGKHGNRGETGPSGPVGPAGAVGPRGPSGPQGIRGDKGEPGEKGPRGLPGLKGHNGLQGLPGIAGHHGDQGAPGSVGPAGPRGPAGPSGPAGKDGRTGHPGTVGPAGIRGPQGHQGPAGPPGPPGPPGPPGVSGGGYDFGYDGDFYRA

[2] = MR phantom study: T1 of samples at 0.47 Tesla; format: physicochemical
Experimental: Acid soluble human collagen type I extracted from placenta (Sigma, cat# C7774, lot#083K375) was dissolved in 15 mM HCl (3.5 mg/mL) by vortexing and gently shaking for 3-4 hours at 4° C. The acid soluble collagen was dialyzed against PBS (pH 7.4). Protein concentration was determined by the BCA method (Pierce, Cat#23225) using bovine collagen (Vitrogen, cat#FXP-019) as a reference standard. The final collagen concentration for the stock solution was 9 μM.
Rat collagen (acid soluble, type I, rat tail, Upstate USA, Inc. Cat# 08-115) was dialyzed against 10 mM Phosphate buffer (NaH2PO4, pH 4.2). The final collagen concentration for the stock solution was approx. 12 μM.
(§1) Samples: • 1. […] Sample prepared as sample 2, but centrifuged to separate insoluble rat collagen gel • 5. Sample prepared as sample 3, but centrifuged to separate insoluble human collagen gel • 6. 27 μM GdDTPA solution in PBS, pH 7.4 • 7. 27 μM GdDTPA in a solution of 5.0 μM rat type I collagen in 10 mM phosphate buffer, pH 5 incubated at 37° C. overnight to form a gel • 8. Sample prepared as in sample 7, but centrifuged to separate insoluble rat collagen gel • 9. Homogeneous gel of 5 μM rat collagen • 10. Homogeneous gel of 7.5 μM human collagen
T1 was determined for samples 1, 2, 3, 6, 7, 9, 10 at 0.47 Tesla using a Bruker NMS120 minispec NMR analyzer operating at 37° C.

[3] = biological target: T2, rat type I collagen gel (Rattus norvegicus, UniProt P02454+P02466); test: MR phantom imaging of collagen gel samples at 4.7 T
T2 construct: Rat collagen (acid soluble, type I, rat tail, Upstate USA, Inc, cat# 08-115); purchased Upstate USA, Inc 08-115; host or cells: rat tail (tissue extract)
T2 sequence (P02454 152-1207 limits assumed): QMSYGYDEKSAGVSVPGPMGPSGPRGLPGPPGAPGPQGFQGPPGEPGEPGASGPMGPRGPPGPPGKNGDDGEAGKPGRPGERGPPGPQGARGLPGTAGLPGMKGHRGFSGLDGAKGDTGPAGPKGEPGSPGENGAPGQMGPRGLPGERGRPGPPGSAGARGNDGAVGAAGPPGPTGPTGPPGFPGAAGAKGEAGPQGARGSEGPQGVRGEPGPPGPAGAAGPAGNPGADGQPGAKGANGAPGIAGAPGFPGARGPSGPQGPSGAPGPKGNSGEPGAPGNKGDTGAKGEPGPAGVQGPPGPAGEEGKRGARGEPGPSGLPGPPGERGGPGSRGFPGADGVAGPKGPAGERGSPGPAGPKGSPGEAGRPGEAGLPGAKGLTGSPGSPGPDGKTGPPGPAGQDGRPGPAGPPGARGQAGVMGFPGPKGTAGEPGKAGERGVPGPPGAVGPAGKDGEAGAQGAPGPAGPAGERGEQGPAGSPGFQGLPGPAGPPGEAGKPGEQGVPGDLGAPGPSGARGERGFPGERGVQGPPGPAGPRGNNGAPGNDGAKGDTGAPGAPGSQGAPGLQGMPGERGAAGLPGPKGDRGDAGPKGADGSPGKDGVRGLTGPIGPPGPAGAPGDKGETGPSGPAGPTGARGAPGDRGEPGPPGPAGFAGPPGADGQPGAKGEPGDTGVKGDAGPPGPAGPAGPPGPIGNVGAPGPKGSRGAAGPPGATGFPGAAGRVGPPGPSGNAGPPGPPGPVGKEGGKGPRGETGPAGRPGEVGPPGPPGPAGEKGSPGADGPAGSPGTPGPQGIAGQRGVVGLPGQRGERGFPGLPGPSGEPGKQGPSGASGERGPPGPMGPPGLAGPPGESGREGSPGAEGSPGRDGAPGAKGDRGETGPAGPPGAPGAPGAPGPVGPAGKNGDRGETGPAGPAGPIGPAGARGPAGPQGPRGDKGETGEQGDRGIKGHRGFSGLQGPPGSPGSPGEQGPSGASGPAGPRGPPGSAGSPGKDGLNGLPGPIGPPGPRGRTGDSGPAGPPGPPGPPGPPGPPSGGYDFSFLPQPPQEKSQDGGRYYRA
T2 sequence (P02466 86-1125 limits assumed): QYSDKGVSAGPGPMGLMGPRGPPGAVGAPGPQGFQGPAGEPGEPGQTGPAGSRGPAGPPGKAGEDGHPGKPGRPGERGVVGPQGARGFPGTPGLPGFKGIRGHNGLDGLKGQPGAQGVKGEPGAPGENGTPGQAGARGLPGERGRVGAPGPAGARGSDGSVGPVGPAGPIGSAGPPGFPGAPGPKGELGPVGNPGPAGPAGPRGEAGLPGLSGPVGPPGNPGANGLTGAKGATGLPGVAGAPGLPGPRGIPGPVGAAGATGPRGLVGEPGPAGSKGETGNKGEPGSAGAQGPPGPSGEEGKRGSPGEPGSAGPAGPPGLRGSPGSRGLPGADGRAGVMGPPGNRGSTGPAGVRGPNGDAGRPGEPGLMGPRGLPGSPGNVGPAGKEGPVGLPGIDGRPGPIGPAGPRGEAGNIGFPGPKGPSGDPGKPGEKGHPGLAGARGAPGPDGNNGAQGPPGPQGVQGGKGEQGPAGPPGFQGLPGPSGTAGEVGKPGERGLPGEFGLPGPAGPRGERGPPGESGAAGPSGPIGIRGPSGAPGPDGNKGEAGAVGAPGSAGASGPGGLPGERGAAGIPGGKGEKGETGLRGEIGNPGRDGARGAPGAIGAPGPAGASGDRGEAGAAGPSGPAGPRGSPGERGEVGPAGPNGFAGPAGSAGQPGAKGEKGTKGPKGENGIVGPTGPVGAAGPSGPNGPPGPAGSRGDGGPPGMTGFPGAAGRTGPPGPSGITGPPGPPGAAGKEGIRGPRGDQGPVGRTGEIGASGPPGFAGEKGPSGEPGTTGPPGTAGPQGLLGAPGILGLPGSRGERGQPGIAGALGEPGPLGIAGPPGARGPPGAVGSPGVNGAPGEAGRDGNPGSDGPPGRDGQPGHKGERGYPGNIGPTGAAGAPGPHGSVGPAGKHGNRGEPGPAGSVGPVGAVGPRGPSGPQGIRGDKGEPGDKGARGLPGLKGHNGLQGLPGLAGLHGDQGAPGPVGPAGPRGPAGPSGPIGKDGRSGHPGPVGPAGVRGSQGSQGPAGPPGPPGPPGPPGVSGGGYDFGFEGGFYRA
Experimental: as §1
Samples for imaging were placed in glass tubes that were in turn placed in tubes containing water. Images were acquired at 4.7 T on a Bruker Biospec Imager using a Multi-Slice Multi-Echo Method with variable Relaxation Delay (MSMEVTR) experiment. The spin echo time and the relaxation delay were set to TE=11.2 ms and TR=500 ms, respectively with a flip angle of 30°. Images were acquired of sample 2, sample 4, sample 7, and sample 8. […] Sample 7 and 8 show uniform signal intensity.

[4] = biological target: T3, dried rat collagen type I (Rattus norvegicus, UniProt P02454+P02466); test: Dried collagen assay (DCA), rat collagen; format: binding; details: for % Collagen Binding, Dried Rat: 5 μM peptide in PBS pH 7.4, 2 hours at room temperature, percent bound
T3 construct: Rat collagen (acid soluble, type I, rat tail, Upstate USA, Inc, cat# 08-115); purchased Upstate USA, Inc 08-115; host or cells: rat tail (tissue extract)
T3 sequence (P02454 152-1207 limits assumed): as the sequence (P02454 152-1207 limits assumed) above
T3 sequence (P02466 86-1125 limits assumed): as the sequence (P02466 86-1125 limits assumed) above
Experimental: Peptides identified using the phage-display protocol were screened using dried collagen assays (DCA) as described in A.-D. below.
For the final assay, a 1:10 volume of 10×PBS (100 mM NaH2PO4, 1.5 M NaCl pH 7.4) is added to the collagen solution (final 1×PBS) and incubated at 37° C. for 2 hours.
An additional 90 μL is reserved in a HPLC glass vial as a measure of the total concentration.

[5] = test system: perfused Langendorff rat heart; test: Equilibrium binding to perfused Langendorff rat heart; details: for Heart: 10 minutes recirculating perfusion; for heart uptake relative to GdDTPA: perfused rat heart
Experimental: After deep anesthesia with pentobarbital (80 mg/kg ip), the chest cavity of a male Sprague Dawley rat (300 g) was opened, retracted and the heart was removed immediately and placed in an ice-cold normal Krebs-Henseleit (K-H) solution (NaCl, 118 mM; KCl, 4.7 mM; CaCl2, 2.5 mM; MgSO4, 1.2 mM; KH2PO4, 1.2 mM; NaHCO3, 25 mM; glucose, 5.5 mM). A K-H buffer filled 20 Gauge needle was inserted into the apex of the heart penetrating into the bottom of the chamber. This was attached to a pressure transducer used to record and monitor heart function. Perfusion pressure (60 mmHg) was monitored using a second transducer. The heart was perfused at a constant flow rate of 10-12 mL/min with 37° C. Krebs-Henseleit buffer saturated with a mixture of 95% O2 and 5% CO2 gas. The heart was paced at 300 beats/min.
Two peptide test articles, a high collagen binding peptide (SEQ ID NO: 144) and a low collagen binding peptide (SEQ ID NO: 173), are compared to GdDTPA. The appropriate test article was added to the K-H buffer solution to a total concentration of either 3 or 30 μM. Also added to the K-H buffer was a radiotracer analog of each peptide or GdDTPA. For the peptides, the radiotracer was an aliquot of the appropriate I-125 labeled peptide derivative (see Example 5 for protocol). For GdDTPA, the tracer added was Tc-99m labeled DTPA. The amount of radioactivity added to the buffer solution was 1-5 μCi.
The heart was perfused for a period of 10 minutes and the perfusion solution was recycled through the heart. The total volume of K-H buffer used was 50-60 mL. After 10 min, the heart was removed from the apparatus and any connective tissue was removed. The heart was opened, fluid in the chambers drained, and the interior blotted dry with filter paper. The heart was then weighed and the radioactivity in the heart measured with a Packard Cobra 5003 Gamma Scintillation counter. An aliquot of the K-H buffer was also weighed and counted. Studies were performed at least in duplicate.
The dual peptide gadolinium tetramer (Compound ID 803) was compared to GdDTPA. Compound ID 803 and GdDTPA were added to the K-H buffer solution to a total concentration of 3 μM. Also added to the K-H buffer was a radiotracer analog of Compound ID 803 or GdDTPA. For Compound ID 803, the radiotracer was an aliquot of the In-111 labeled compound. For GdDTPA, the tracer added was Tc-99m labeled DTPA. The amount of radioactivity added to the buffer solution was 1-5 μCi.

[6] = Biodistribution (heart, blood) after tail vein injection, radiotracer counting; format: in vivo, Sprague-Dawley rats; details: for Blood (% ID/g) / Heart (% ID/g): rat, 0.5 μmol/kg tail vein
Experimental: Concentration estimates were decay corrected. Studies were performed at least in duplicate.

[7] = test system: perfused Langendorff rat heart; test: Washout kinetics from perfused Langendorff rat heart; details: for fraction of compound present at 0 minutes post infusion that remains at 10 minutes: 10 minutes after infusion
Experimental: A K-H buffer filled 20 Gauge needle was inserted into the apex of the heart penetrating into the bottom of the chamber. This was attached to a pressure transducer used to record and monitor heart function. Perfusion pressure (60 mmHg) was monitored using a second transducer. The heart was perfused at a constant flow rate of 10-12 mL/min with 37° C. […] The heart was paced at 300 beats/min.
A Langendorff rat heart preparation was perfused with K-H buffer at a rate of 10-12 mL/min. […] After the infusion was finished, the heart was either removed or perfusion was allowed to continue for an additional 10 minutes and then the heart was removed. The perfusion buffer was not recirculated through the heart. After removal of any connective tissue, the heart was opened, fluid in the chambers drained, and the interior blotted dry with filter paper. […] An aliquot of the K-H buffer was also weighed and counted. Concentration estimates were decay corrected. Studies were performed at least in duplicate.

Substance	Dried Human Collagen Binding [1]	% Collagen Binding, Dried Rat [4] [%]	also measured
Glu-DTPA-Gd-G.Q.W.H.C.T.T.R.F.P.H.H.Y.C.L.Y.G-PEG-H (GQWHCTTRFPHHYCLYG; disulfide 5-14 (inferred); not fully specified (N-terminus, C-terminus); also: Gd complex of DTPA) [SEQ ID NO. 186]			T1 ([2]; in 5.0 μM rat collagen gel, 10 μM Compound ID 1022 or 27 μM GdDTPA, 37° C.): 2.370 s; T1 ([2]; in 7.5 μM human collagen gel, 10 μM Compound ID 1022, 37° C.): 2.100 s; T1 ([2]; in PBS pH 7.4, 10 μM Compound ID 1022 or 27 μM GdDTPA, 37° C.): 2.375 s; MR signal of centrifuged collagen gel pellet versus supernatant [3]: the pellet for sample 4 was much brighter than the supernatant
163 (YHACYQAGCWIW) [compound 163]		53	
112 (AKACSVHDEFGCLIS; disulfide 4-12 (inferred)) [compound 112]	9%		
137 (YHACYQAGCWAW; disulfide 4-9 (inferred)) [compound 137]		7	
2 (WGWCEWAQNNCWNY) [compound 2]	14%		
13 (QWTCSGDEYTWHCNYE; disulfide 4-13 (inferred)) [compound 13]	78-85%		
165 (QWTCSGDEYTWHCNYE) [compound 165]	2%	4	
Q W T C S G D E Y T w H C N Y E (QWTCSGDEYT[dW]HCNYE; disulfide 4-13 (inferred)) [SEQ ID NO. 173]			Heart:Buffer ([5]; buffer 3.0 μM): 0.37 ± 0.08; Heart ([5]; buffer 3.0 μM): 1.1 ± 0.2 nmol/g; specific heart uptake (in words) ([5]; heart concentrations compared with GdDTPA): no specific uptake
159 (YHACYQAGCWIW) [compound 159]	7%		
190 (GQWTCSGDEYTWHCNYE) [compound 190]			% Binding Collagen I Rat ([4]; chelate conjugates): 5%
38 (GWSCHGDAADWPCQWS; disulfide 4-13 (inferred)) [compound 38]	6%		
74 (QWHCTTRFPHHYCLYG) [compound 74]	67-69%		
39 (GWQCSGDASVWNCDWI; disulfide 4-13 (inferred)) [compound 39]	6%		
166 (QWTCSGDEYTWHCNYE) [compound 166]	2%	3	
37 (LWNCHGTDANWKCVLN; disulfide 4-13 (inferred)) [compound 37]	7%		
113 (FSECVWVNAYQCEYF; disulfide 4-12 (inferred)) [compound 113]	3%		
Q W T C S G D A Y T W H C N Y E (QWTCSGDAYTWHCNYE) [SEQ ID NO. 144]			Heart:Blood ([6]; 1 min post injection): 0.38; Heart:Blood ([6]; 5 min post injection): 1.08; Blood (% ID/g) ([6]; 1 min post injection): 1.8 ± 0.2 % ID/g; Heart (% ID/g) ([6]; 1 min post injection): 0.68 ± 0.01 % ID/g; Blood (% ID/g) ([6]; 5 min post injection): 0.46 ± 0.07 % ID/g; Heart (% ID/g) ([6]; 5 min post injection): 0.50 ± 0.16 % ID/g; Heart (% ID/g) ([7]; 0 min after infusion): 4.6 ± 1.1 % ID/g; Heart (% ID/g) ([7]; 10 min after infusion, non-recirculated buffer): 3.1 ± 1.6 % ID/g; fraction of compound present at 0 minutes post infusion that remains at 10 minutes [7]: 68%; Heart:Buffer ([5]; buffer 3.0 μM): 3.3 ± 0.8; Heart ([5]; buffer 3.0 μM): 9.8 ± 2.3 nmol/g; Heart:Buffer ([5]; buffer 30 μM): 4.0 ± 1.7; Heart ([5]; buffer 30 μM): 120 ± 50 nmol/g; heart uptake relative to GdDTPA [5]: about 10 times
142 (QWTCSADEYTWHCNYE) [compound 142]		6	
3 (PWWCHEMPSMCFGF) [compound 3]	2%		
65 (KWECVHTKGEWYCETK; disulfide 4-13 (inferred)) [compound 65]	7%		
Compound ID 803: dual peptide, gadolinium tetramer; bb-DTPA tetramer diacid coupled to N-terminus of SEQ ID NO. 264 peptide ({bb‑DTPA gadolinium tetramer}-GQWHCTTSFPHHYCLYG; disulfide 5-14 (inferred); reading uncertain; also: Gd complex) [dual peptide, gadolinium tetramer; 264 peptide]			fraction of compound present at 0 minutes post infusion that remains at 10 minutes [7]: 54%; heart uptake relative to GdDTPA [5]: about 7 times
167 (QWTCSGDEYTWHCNYE) [compound 167]	4%		
36 (SWSCGGDHNAWKCQYS; disulfide 4-13 (inferred)) [compound 36]	7%		
147 (QWTCSGDEYTAHCNYE) [compound 147]	5%		
130 (WWACQKGRHDWEKCRWL; disulfide 4-14 (inferred)) [compound 130]	32%		

Second part, led by results:

Dried Human Collagen Binding [1]	% Collagen Binding, Dried Rat [4] [%]	Substance	also measured
5%		174 (QWTCSGDEYTWHCNYE) [compound 174]	
2%	2	175 (QWTCSGDEYTWHCNYE) [compound 175]	
	4	169 (QWTCSGDEYTWHCNYE) [compound 169]	
2%	2	176 (QWTCSGDEYTWHCNYE) [compound 176]	
	6	171 (QWTCSGDEYTWHCNYE) [compound 171]	
3%	2	168 (QWTCSGDEYTWHCNYE) [compound 168]	
5%	4	173 (QWTCSGDEYTWHCNYE) [compound 173]	

Reference: US20080058636A1, “METHODS OF MYOCARDIAL IMAGING” (Epix Pharmaceuticals, Inc., priority 2005, published 2008)
